Read-outs that look alike come from different tables or passages of the source. One block for each molecule: values may come before it.
Experiments:
CD20 on cell lines = CD20 on cell lines (UniProt P11836); test: cell-based or functional assay
[1] = target: T1, human CD38 on cells or tissue (human, UniProt P28907 1-300); test: cell-based or functional assay
[2] = target: T1, human CD38 on cells or tissue; test: FACS Scatchard, IgG1 on RPMI8226 MM cells; mean of at least 2 determinations
[3] = target: T1, human CD38 on cells or tissue
bovine serum albumine [4] = target: T2, bovine serum albumine (bovine, UniProt P02769 25-607); test: ELISA; antigen coated at 5 µg/ml, anti-human Fab alkaline phosphatase conjugate, fluorescence Ex/Em 430/535 nm
T2 construct: Control antigen coated on ELISA wells; also called BSA
T2 sequence (P02769 25-607 limits assumed): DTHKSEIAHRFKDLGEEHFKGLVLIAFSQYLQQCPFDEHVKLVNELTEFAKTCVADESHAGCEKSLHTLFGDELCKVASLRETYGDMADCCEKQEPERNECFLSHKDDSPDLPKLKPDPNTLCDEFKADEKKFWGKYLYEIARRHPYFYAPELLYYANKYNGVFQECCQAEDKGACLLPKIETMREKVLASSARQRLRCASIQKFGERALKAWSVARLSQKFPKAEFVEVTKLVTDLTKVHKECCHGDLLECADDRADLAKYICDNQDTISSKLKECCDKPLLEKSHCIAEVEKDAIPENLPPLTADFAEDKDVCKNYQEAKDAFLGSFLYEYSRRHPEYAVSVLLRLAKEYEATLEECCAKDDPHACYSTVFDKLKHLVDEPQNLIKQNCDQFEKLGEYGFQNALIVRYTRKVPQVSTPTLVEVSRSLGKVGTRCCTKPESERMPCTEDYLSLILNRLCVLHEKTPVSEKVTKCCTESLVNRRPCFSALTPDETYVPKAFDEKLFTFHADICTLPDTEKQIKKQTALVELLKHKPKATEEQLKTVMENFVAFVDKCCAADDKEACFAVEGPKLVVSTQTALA

[5] = target: T3, hCD38 Fc fusion protein (aa 45-273) (human, UniProt P28907 45-273); test: as above
T3 construct: Making of this construct is not described; also called C-terminally deleted format; not shown: Fc part (not described for this construct)

[6] = target: T1, human CD38 on cells or tissue; test: cell-based or functional assay; remark: listed apart in the source
[7] = target: T4, hCD38 Fc fusion protein (aa 45-300) (human, UniProt P28907 45-300); test: SPR (Biacore 3000), Fab over directly immobilized CD38-Fc fusion protein; mean of at least 2 determinations
T4 construct: produced in HEK293; also called full-length hCD38 Fc-fusion protein; soluble CD38-Fc

[8] = target: T1, human CD38 on cells or tissue; test: cell-based or functional assay; remark: listed apart in the source
[9] = target: T1, human CD38 on cells or tissue; test: cell-based or functional assay; remark: listed apart in the source
bovine serum albumine [10] = target: T2, bovine serum albumine; test: ELISA; antigen coated at 5 µg/ml, anti-murine Fab alkaline phosphatase conjugate, fluorescence Ex/Em 430/535 nm
[11] = target: T3, hCD38 Fc fusion protein (aa 45-273); test: as above
[12] = target: T5, cynomolgus monkey CD38 on cells or tissue (cynomolgus monkey, UniProt Q5VAN0 1-301); test: FACS on lymphocytes; IHC on spleen, lymph-nodes
T5 construct: whole, on cells
T5 sequence (Q5VAN0 whole entry): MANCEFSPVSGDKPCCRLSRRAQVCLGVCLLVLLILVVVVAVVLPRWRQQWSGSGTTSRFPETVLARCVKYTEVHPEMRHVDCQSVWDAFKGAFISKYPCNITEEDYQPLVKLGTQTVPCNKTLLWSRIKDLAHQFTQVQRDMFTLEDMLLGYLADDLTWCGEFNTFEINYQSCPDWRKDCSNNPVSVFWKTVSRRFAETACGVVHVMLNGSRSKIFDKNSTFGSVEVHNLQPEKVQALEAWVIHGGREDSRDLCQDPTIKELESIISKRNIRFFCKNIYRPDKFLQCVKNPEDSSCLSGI

[13] = target: T1, human CD38 on cells or tissue; test: cell-based or functional assay; remark: listed apart in the source

Chain of CD20 on cell lines (P11836 whole entry): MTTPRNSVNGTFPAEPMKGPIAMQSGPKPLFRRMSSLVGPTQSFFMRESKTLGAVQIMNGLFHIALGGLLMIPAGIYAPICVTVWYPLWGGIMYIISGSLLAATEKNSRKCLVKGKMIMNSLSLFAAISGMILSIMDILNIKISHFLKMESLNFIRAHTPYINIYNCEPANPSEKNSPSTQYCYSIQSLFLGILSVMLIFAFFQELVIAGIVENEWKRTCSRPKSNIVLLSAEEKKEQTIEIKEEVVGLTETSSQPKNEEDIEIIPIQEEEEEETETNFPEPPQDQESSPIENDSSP

Molecule: Rituximab (antibody)
Namalwa (max. spec. Killing), o/n incubation (CD20 on cell lines): < 1% | Raji (max. spec. killing), o/n incubation (CD20 on cell lines): 9%

ADCC EC50 [nM], LP-1 target cells [1]: 5.23 nM | ADCC EC50 [nM], RPMI8226 target cells [1]: 4.1 nM | CDC EC50 [nM], CHO-transfectants [1]: 9.3 nM | Kd [2]: 8280 pM
Molecule: chimeric OKT10 (antibody)
max. specific killing in ADCC, NCI-H929 cells (MM), E:T 30:1, 5 µg/ml; column PC [3]: 54%

binding result (bovine serum albumine [4]): no binding (tested: 10 µg/ml) | binding result [5]: no binding (tested: 10 µg/ml) | Kd [2]: 6310 pM | ADCC EC50 [nM], LP-1 target cells [6]: 1 nM | ADCC EC50 [nM], RPMI8226 target cells [6]: 0.28 nM | CDC EC50 [nM], CHO-transfectants (mean from 2 determinations) [6]: 10.9 nM | CDC EC50 [nM], CHO-transfectants (mean from 4 determinations) [6]: 13.6 nM
B1: MOR03100 human IgG1 (antibody, V domains shown)
VH: QVQLVESGGGLVQPGGSLRLSCAASGFTFSSNGMSWVRQAPGKGLEWVSNISYLSSSTYYADSVKGRFTISRDNSKNTLYLQMNSLRAEDTAVYYCARFYGYFNYADVWGQGTLVTVSS
VL: DIELTQPPSVSVAPGQTARISCSGDNIGHYYASWYQQKPGQAPVLVIYRDNDRPSGIPERFSGSNSGNTATLTISGTQAEDEADYYCQSYDYLHDFVFGGGTKLTVLG
notes: also called LAC 3100; MAb#4

Kd [7]: 10000 pM
B2: MOR03100 Fab (Fab, V domains shown)
VH: B1 VH
VL: B1 VL
notes: also called LAC 3100; antibody no; 3100

binding result (bovine serum albumine [4]): no binding (tested: 10 µg/ml) | binding result [5]: no binding (tested: 10 µg/ml) | Kd [2]: 600 pM | CDC EC50, LP-1 cells [8]: 550 pM | ADCC EC50 [nM], LP-1 target cells [6]: 0.09 nM | ADCC EC50 [nM], RPMI8226 target cells [6]: 0.04 nM | CDC EC50 [nM], CHO-transfectants [6]: 0.41 nM
B3: MOR03079 human IgG1 (antibody, V domains shown)
VH: QVQLVESGGGLVQPGGSLRLSCAASGFTFSNYGMHWVRQAPGKGLEWVSNIRSDGSWTYYADSVKGRFTISRDNSKNTLYLQMNSLRAEDTAVYYCARRYWSKSHASVTDYWGQGTLVTVSS
VL: DIQMTQSPSSLSASVGDRVTITCRASQDISAFLNWYQQKPGKAPKLLIYKVSNLQSGVPSRFSGSGSGTDFTLTISSLQPEDFATYYCQQAYSGSITFGQGTKVEIKR
notes: also called MAb#2
MM-samples (max. spec. Killing), 4 hrs incubation [9]: 24% | Namalwa (EC50), killing by cross-linking [9]: 80 pM | Namalwa (max. spec. Killing), o/n incubation [9]: 18% | Raji (EC50), killing by cross-linking [9]: 80 pM | Raji (max. spec. killing), o/n incubation [9]: 21%

binding result (bovine serum albumine [10]): no binding (tested: 10 µg/ml) | binding result [11]: no binding (tested: 10 µg/ml)
B4: MOR03079 human-mouse chimeric IgG2a (antibody, V domains shown)
VH: B3 VH
VL: B3 VL
notes: Chimeric IgG2a: human variable regions of MOR03079 fused to murine Fc gamma 2a constant regions; also called MAb#2 (chimeric: human variable domaine/murine Fc 2a); mu03079

Kd [7]: 2400 pM
B5: MOR03079 Fab (Fab, V domains shown)
VH: B3 VH
VL: B3 VL
notes: also called antibody no

binding result (bovine serum albumine [4]): no binding (tested: 10 µg/ml) | binding result [5]: no binding (tested: 10 µg/ml) | Kd [2]: 470 pM | ADCC EC50 [nM], LP-1 target cells [6]: 0.17 nM | ADCC EC50 [nM], RPMI8226 target cells [6]: 0.05 nM | CDC EC50 [nM], CHO-transfectants (mean from 2 determinations) [6]: 3.2 nM | CDC EC50 [nM], CHO-transfectants (mean from 3 determinations) [6]: 2.93 nM
B6: MOR03080 human IgG1 (antibody, V domains shown)
VH: QVQLVESGGGLVQPGGSLRLSCAASGFTFSSYGMHWVRQAPGKGLEWVSNIYSDGSNTFYADSVKGRFTISRDNSKNTLYLQMNSLRAEDTAVYYCARNMYRWPFHYFFDYWGQGTLVTVSS
VL: DIELTQPPSVSVAPGQTARISCSGDNIGNKYVSWYQQKPGQAPVVVIYGDNNRPSGIPERFSGSNSGNTATLTISGTQAEDEADYYCSSYDSSYFVFGGGTKLTVLG
notes: also called MAb#3
MM-samples (max. spec. Killing), 4 hrs incubation [9]: 4% | Namalwa (max. spec. Killing), o/n incubation [9]: < 1% | Raji (max. spec. killing), o/n incubation [9]: 4%

binding result (bovine serum albumine [10]): no binding (tested: 10 µg/ml) | binding result [11]: no binding (tested: 10 µg/ml) | binding result [12]: binds
B7: MOR03080 human-mouse chimeric IgG2a (antibody, V domains shown)
VH: B6 VH
VL: B6 VL
notes: Chimeric IgG2a: human variable regions of MOR03080 and murine constant regions; also called MAb#3 (chimeric: human variable domaine/murine Fc 2a); mu03080

Kd [7]: 27500 pM
B8: MOR03080 Fab (Fab, V domains shown)
VH: B6 VH
VL: B6 VL
notes: also called antibody no

binding result (bovine serum albumine [4]): no binding (tested: 10 µg/ml) | binding result [5]: no binding (tested: 10 µg/ml) | Kd [2]: 890 pM | ADCC EC50 values in [nM], MM Samples (purified primary MM-cells) [13]: 0.08 nM | CDC EC50, LP-1 cells [8]: 5600 pM | CDC EC50 on hCD38-transfectants, fold better than reference antibody chOKT10 [8]: 3 fold | ADCC EC50 [nM], LP-1 target cells [6]: 0.6 nM | ADCC EC50 [nM], RPMI8226 target cells [6]: 0.08 nM | CDC EC50 [nM], CHO-transfectants (mean from 2 determinations) [6]: 0.8 nM | CDC EC50 [nM], CHO-transfectants (mean from 3 determinations) [6]: 0.94 nM
B9: MOR03077 human IgG1 (antibody, V domains shown)
VH: QVQLVQSGAEVKKPGASVKVSCKASGYTFTSYSINWVRQAPGQGLEWMGYIDPNRGNTNYAQKFQGRVTMTRDTSISTAYMELSSLRSEDTAVYYCAREYIYFIHGMLDFWGQGTLVTVSS
VL: DIVMTQSPLSLPVTPGEPASISCRSSQSLLFIDGNNYLNWYLQKPGQSPQLLIYLGSNRASGVPDRFSGSGSGTDFTLKISRVEAEDVGVYYCQQYSSKSATFGQGTKVEIKR
notes: also called MAb#1
MM-samples (max. spec. Killing), 4 hrs incubation [9]: 21% | Namalwa (max. spec. Killing), o/n incubation [9]: 11% | Raji (max. spec. killing), o/n incubation [9]: 21%

Kd [7]: 56000 pM
B10: MOR03077 Fab (Fab, V domains shown)
VH: B9 VH
VL: B9 VL
notes: also called antibody no
